Assay results taken from US10500249B2, “Compositions and methods for preventing or treating diseases, conditions, or processes characterized by aberrant fibroblast proliferation and extracellular matrix deposition” (MOERAE MATRIX, INC., priority 2014, dated 2019).

Tests used:
Test in all cases: Kinase Profiling Assay
Format in all cases: biochemical
Settings in all cases: 100 μM
Abl (Q252H) (h) = Abl (Q252H) (h) (Homo sapiens, UniProt P00519, Q252H)
How it was run: (§1)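 Specificity of MK2 inhibitory peptides is assessed against a panel of 266 human kinases. Kinase transfers a radiolabeled phosphate from ATP onto a positively charged substrate, which is trapped on a negatively charged filter and quantified by scintillation counting against full-activity control; duplicate determinations.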

EphB4 (h) = molecular target: T1, EphB4 (h) (Homo sapiens, UniProt P54760)
T1 sequence (P54760 16-987): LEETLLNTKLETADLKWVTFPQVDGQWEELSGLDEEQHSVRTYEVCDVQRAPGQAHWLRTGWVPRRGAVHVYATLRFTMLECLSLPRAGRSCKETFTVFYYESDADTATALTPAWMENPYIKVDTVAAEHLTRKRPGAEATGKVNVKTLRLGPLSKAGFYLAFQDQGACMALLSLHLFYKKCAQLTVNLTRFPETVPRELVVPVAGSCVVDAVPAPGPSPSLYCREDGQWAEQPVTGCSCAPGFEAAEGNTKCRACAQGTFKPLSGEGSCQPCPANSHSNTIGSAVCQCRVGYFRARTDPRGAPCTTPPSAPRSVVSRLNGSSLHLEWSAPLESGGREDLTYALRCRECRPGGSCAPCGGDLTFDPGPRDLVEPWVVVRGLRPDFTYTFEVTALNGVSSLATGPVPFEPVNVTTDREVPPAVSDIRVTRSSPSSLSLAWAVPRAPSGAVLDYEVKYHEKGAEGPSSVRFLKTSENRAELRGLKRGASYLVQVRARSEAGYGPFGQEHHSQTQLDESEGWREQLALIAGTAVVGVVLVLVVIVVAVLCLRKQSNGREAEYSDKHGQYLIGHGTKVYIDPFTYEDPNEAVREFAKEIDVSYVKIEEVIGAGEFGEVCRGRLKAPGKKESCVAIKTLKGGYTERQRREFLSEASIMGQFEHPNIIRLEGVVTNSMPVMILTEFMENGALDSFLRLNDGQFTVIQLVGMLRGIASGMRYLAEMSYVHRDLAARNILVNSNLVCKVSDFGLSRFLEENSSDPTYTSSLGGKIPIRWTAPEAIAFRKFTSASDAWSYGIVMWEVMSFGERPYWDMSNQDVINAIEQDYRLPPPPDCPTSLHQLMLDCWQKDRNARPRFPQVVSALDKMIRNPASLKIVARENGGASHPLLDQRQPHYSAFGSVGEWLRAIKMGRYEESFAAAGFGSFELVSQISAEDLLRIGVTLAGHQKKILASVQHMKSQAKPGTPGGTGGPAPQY
How it was run: as §1

cSRC (h) = molecular target: T2, cSRC (h) (Homo sapiens, UniProt P12931)
T2 construct: purchased Millipore
How it was run: as §1

Yes (h) = Yes (h) (Homo sapiens, UniProt P07947)
Chain of Yes (h) (P07947 whole entry): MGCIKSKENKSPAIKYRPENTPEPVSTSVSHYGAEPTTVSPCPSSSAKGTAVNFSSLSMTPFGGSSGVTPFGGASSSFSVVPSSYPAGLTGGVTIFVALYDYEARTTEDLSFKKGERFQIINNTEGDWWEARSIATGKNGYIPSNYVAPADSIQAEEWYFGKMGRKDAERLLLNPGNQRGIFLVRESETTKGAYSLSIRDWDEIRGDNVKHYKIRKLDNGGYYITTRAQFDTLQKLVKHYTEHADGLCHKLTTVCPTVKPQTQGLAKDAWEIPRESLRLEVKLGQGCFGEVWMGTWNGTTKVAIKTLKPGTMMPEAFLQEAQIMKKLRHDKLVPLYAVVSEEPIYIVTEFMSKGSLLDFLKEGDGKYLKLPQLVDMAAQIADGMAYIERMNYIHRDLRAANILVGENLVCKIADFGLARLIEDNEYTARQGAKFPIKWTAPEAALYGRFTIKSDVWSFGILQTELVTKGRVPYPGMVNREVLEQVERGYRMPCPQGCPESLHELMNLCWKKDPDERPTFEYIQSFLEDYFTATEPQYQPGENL
How it was run: as §1

CDK2/cyclinE (h) = molecular target: T3, CDK2/cyclinE (h) (Homo sapiens, UniProt P24941)
T3 construct: purchased Millipore
How it was run: as §1

HIPK1 (h) = molecular target: T4, HIPK1 (h) (Homo sapiens, UniProt Q86Z02)
T4 construct: purchased Millipore
T4 sequence (Q86Z02 whole entry): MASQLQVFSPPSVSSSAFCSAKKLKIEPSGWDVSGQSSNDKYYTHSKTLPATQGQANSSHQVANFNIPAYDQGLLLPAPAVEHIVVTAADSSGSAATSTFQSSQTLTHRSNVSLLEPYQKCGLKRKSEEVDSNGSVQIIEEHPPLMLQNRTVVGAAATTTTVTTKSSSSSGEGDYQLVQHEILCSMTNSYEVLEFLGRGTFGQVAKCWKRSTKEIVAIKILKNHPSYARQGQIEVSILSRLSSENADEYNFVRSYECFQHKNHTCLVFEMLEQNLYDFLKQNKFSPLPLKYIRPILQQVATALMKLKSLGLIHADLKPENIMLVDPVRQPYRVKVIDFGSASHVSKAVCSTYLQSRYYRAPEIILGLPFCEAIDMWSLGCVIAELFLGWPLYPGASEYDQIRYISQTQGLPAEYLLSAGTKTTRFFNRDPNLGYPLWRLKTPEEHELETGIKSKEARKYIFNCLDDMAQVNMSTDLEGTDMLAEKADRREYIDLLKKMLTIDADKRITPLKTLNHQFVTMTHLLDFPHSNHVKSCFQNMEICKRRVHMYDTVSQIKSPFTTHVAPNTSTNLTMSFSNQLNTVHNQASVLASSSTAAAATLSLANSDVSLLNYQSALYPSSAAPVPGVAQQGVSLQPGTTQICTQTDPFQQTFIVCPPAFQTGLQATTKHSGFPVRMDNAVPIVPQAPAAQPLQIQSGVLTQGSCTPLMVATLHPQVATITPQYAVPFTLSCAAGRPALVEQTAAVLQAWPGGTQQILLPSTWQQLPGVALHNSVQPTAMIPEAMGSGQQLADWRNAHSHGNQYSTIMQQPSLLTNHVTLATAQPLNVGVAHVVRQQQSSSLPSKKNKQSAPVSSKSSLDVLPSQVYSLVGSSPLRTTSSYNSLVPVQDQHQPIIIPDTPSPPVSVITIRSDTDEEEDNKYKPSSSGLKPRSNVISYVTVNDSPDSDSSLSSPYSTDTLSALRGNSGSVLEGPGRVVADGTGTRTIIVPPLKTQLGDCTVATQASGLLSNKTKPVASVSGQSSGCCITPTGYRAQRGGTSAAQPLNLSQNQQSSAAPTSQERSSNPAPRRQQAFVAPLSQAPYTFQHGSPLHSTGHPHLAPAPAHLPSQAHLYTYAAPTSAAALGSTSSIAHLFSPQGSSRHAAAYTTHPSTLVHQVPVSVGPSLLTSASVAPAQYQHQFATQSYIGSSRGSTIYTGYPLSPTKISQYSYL
How it was run: as §1

EphA4 (h) = EphA4 (h) (Homo sapiens, UniProt P54764)
Chain of EphA4 (h) (P54764 20-986): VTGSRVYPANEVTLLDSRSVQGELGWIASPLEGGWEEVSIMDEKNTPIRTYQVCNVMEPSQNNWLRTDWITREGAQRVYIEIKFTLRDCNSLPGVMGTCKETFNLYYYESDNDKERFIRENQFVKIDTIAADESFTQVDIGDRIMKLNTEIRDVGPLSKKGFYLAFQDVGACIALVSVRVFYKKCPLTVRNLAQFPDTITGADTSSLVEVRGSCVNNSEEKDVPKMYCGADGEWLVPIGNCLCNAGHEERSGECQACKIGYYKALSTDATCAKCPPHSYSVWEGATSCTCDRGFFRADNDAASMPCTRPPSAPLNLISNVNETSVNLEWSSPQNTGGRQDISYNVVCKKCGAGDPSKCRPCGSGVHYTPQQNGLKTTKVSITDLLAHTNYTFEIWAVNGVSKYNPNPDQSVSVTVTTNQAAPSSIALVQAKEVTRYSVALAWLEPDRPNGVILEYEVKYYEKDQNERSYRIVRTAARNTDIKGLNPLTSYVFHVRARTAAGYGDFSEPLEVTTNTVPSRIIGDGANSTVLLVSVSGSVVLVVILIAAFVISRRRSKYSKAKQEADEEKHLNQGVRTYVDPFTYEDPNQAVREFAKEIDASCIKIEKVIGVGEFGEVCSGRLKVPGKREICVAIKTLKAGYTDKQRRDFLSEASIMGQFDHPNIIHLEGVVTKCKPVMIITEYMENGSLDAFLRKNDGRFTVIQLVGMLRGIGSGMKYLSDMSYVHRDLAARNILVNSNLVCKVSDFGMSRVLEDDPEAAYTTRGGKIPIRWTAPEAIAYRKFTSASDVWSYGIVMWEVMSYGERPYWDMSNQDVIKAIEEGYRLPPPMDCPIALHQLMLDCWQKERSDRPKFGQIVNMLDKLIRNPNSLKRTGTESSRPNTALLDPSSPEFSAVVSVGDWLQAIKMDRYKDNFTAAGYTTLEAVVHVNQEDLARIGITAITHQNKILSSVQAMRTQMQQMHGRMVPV
How it was run: as §1

CDK9/cyclin T1 (h) = molecular target: T5, CDK9/cyclin T1 (h) (Homo sapiens, UniProt P50750)
T5 construct: purchased Millipore
T5 sequence (P50750 whole entry): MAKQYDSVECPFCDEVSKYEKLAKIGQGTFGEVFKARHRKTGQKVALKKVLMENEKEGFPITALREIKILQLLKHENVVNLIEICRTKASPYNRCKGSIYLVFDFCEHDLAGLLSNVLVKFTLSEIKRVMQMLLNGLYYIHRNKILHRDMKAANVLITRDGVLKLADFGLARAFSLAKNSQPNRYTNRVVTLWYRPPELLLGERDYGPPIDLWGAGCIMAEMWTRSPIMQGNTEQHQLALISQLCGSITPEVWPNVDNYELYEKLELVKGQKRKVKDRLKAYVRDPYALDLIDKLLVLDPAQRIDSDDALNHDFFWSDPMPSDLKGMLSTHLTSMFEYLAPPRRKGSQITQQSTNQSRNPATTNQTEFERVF
T5 sequence (O60563 whole entry partner): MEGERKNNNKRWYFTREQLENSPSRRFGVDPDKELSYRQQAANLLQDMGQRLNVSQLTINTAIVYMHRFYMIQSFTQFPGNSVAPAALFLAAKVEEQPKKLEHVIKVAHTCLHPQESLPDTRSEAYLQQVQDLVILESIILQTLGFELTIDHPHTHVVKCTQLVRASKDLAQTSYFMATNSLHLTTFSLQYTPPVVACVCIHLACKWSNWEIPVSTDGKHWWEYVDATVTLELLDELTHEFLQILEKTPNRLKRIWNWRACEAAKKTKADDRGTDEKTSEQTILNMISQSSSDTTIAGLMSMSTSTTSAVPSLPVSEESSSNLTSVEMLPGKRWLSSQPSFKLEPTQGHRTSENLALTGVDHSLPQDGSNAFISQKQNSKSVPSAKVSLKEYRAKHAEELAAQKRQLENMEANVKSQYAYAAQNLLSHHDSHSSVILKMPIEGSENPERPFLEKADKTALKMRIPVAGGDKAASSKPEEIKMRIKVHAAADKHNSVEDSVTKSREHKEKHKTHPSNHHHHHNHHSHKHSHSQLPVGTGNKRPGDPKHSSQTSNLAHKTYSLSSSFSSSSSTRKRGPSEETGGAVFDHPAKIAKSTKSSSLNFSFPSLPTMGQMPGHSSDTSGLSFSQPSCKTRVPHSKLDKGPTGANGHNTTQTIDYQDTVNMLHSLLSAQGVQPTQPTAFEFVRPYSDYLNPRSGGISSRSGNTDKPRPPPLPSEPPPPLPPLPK
How it was run: as §1

TSSK2 (h) = molecular target: T6, TSSK2 (h) (Homo sapiens, UniProt Q96PF2)
T6 sequence (Q96PF2 1-358): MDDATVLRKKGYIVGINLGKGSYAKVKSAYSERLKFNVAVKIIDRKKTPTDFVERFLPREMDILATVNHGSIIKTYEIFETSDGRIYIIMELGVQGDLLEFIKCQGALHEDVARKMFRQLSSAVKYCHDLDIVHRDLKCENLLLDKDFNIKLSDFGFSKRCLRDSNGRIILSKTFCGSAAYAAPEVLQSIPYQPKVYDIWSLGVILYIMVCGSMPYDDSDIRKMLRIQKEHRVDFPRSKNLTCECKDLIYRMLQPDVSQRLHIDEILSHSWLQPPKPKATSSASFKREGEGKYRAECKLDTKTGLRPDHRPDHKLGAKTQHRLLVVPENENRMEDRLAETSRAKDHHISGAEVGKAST
How it was run: as §1

DYRK2 (h) = molecular target: T7, DYRK2 (h) (Homo sapiens, UniProt Q92630)
T7 construct: purchased Millipore
T7 sequence (Q92630 1-601): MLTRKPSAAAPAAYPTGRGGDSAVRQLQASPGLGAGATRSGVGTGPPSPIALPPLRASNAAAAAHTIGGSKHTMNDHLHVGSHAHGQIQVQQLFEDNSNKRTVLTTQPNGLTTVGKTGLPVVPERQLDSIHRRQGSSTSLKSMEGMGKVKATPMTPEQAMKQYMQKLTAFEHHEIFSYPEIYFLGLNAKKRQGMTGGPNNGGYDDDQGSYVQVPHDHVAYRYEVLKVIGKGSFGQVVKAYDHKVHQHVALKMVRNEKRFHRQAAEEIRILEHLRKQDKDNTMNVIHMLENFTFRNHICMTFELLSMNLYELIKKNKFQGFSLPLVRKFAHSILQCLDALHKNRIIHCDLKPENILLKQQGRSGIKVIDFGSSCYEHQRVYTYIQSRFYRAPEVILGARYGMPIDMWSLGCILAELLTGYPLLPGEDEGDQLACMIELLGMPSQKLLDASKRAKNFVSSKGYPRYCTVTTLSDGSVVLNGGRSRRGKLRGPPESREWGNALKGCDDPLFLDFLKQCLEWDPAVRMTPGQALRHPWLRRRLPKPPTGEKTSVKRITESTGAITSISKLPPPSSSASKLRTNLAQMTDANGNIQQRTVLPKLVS
How it was run: as §1

EGFR(T790M, L858R) (h) = molecular target: T8, EGFR(T790M, L858R) (h) (Homo sapiens, UniProt P00533, L858R/T790M)
T8 construct: purchased Millipore
How it was run: as §1

mTOR/FKBP12 (h) = molecular target: T9, mTOR/FKBP12 (h) (Homo sapiens, UniProt P42345)
T9 construct: purchased Millipore
T9 sequence (P42345 1362-2549 limits assumed): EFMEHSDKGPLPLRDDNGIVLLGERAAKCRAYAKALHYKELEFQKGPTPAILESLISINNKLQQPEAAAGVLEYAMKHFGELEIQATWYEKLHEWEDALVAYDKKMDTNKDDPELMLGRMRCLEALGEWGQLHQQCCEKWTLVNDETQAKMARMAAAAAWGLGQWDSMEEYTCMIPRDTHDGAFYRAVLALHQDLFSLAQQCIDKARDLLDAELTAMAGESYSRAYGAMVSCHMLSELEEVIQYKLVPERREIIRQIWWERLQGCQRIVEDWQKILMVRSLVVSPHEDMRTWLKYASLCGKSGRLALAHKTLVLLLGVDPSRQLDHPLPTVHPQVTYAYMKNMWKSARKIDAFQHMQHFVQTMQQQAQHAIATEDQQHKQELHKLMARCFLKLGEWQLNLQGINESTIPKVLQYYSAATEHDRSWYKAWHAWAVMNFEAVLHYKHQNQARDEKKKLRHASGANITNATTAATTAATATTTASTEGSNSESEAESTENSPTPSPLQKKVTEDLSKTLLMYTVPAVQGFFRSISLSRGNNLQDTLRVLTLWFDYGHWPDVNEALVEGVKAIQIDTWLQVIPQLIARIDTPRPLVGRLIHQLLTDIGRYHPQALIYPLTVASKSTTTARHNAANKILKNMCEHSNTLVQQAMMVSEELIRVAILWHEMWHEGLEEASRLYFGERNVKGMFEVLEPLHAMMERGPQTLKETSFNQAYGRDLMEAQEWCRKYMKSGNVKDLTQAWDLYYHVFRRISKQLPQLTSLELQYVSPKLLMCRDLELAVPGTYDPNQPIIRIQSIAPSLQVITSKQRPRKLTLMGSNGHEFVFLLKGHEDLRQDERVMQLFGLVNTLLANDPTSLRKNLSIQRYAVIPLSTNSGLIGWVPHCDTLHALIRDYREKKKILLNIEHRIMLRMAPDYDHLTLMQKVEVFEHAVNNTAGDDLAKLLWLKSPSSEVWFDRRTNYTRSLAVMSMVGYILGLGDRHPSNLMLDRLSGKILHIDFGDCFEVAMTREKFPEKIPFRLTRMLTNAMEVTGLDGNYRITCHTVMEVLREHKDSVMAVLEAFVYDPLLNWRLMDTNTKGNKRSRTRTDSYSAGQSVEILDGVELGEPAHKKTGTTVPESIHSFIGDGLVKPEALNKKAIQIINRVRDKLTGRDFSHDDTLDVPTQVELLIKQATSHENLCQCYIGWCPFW
How it was run: as §1

CDK2/cyclinA (h) = molecular target: T10, CDK2/cyclinA (h) (Homo sapiens, UniProt P24941)
T10 construct: purchased Millipore
How it was run: as §1

Sequence	% activity (Abl (Q252H) (h))	% activity (EphB4 (h))	% activity (cSRC (h))	% activity (Yes (h))	% activity (CDK2/cyclinE (h))	% activity (HIPK1 (h))	% activity (EphA4 (h))	% activity (CDK9/cyclin T1 (h))	% activity (TSSK2 (h))	% activity (DYRK2 (h))	% activity (EGFR(T790M, L858R) (h))	% activity (mTOR/FKBP12 (h))	% activity (CDK2/cyclinA (h))
KAFAKLAARLYRKALARQLGVAA [MMI-0400]	98%	28%	14%	14%	83%	91%	65%	235%	94%	195%	78%	125%	92%
YARAAARQARAKALNRQLGVA (Mammalian) [MMI-0200]	–	131%	32%	93%	–	–	127%	–	91%	142%	108%	118%	–
HRRIKAWLKKIKALARQLGVAA (Mammalian) [MMI-0500]	40%	38%	30%	–	19%	47%	48%	6%	92%	127%	53%	140%	87%
FAKLAARLYRKALARQLGVAA [MMI-0300]	82%	44%	26%	67%	94%	74%	88%	91%	98%	155%	85%	145%	86%
